Data: a protein production outcome set (Wang et al. 2014)

Assay: label from the status in PepcDB records

Row | Sequence | protein production
1 | MKKVIGAATATVFGLGAFTTTATAETIVTADVLNVREKPTTESKVVEKVKNGEELKVINTEDGWSKIELNGKEVFVSSEFTKDIYHVTADLLNVRSESNTESKILGRLKKDDVIESTNQVKDGWLQFEYKGKTAYVNVSFLSSKAPIEKKADEKTKQVAKVQKSVKAKEEAKTQKITKAKETIKPKEEVKVQEVAKPKEEVKVQEVAKPKEEVKVQEVAKPKEEVKVQEVVKPKEEVKVQEVVKPKEEVKVQEVAKAKEEAKVQEIAKAKEEAKAQEIAKAKEEAKAQEIAKAKEEAKAQEIAKAKEEAKAQEIAKAKEEAKAQEIAKAKEEAKAQEIAKAKEEAKAQEIAKAKEEAKAQEIAKAKEEAKAQEIAKAKEEAKEREIAKAKEEAKAREIAKAKEEEKAREALKAKEESKNNVQSAKRELTVVATAYTADPSENGTYGGRVLTAMGHDLTANPNMRIIAVDPKVIPLGSKVWVEGYGEAIAGDTGSAIKGNRIDVLMGSKSKAMNWGRQTVKVKILLEHHHHHH | failed
2 | MSNRIKNIHYGTQRQQLKNLTKKEYQALREMCFLAKNLYNVGTYNVRQHYFNQGEHLNYEANYHVCKENENYKLLNSNIAQQILKEVDSSFRSFFGLIKLAKEGKYDFRGIKSPKYLDKEGFFSIIIGQIRIKEDGILNVPMSPAFKKLYGKVSIKVPQNILEKKIKEIRIIPKHKARFFEIQYCYEIPKSEEVSNQKNALAIDLGLENLCTCVTNLGDSFIIDGKRLKSVNQWANKQNDKIEALKLKKNITAITRKQFKVWNKRNNQVKDYVNKTCFYIIDYCVKNNIGNLIVGYNAKLEKSDNMERKIYRNFIRIPFGEIKGKLEYLCKIKNINFIRQEESYTSKSDFFADDFLPDINVDNVKKYDFKGERITRGQYKSSVGIIINADVNASLNILKKSQVVNLSNLQNNPQILKQPQRVRIS | failed
3 | MTEEAAAQQTPVPGMTGPRRAAVGFIFITIALDMLSLGMILPILPKLIESFSDDNTANAARIYGLFGTAWALMQLFASPILGGLSDRFGRRPVILLSNLGLGLDYVLMALAPSLWWLFVGRVISGITSASISTSFAYIADVTPAEKRAAVFGMVGAAFGLGFTFGPAIGGLLGGVDPRLPFWVAAALSLANTLYGLFVLPESLPRDRRSPFRWKSANPIGAVRLLSSNARLAALAVVEFCAEVAHVALPATFVLYTGYRYAWDQTTIGLALAFVGVCTTIVQGGLVGPAVKLLGERNAQIIGYGGGALGFLIYALAPSGTLFWIGIPVMTLWGIAGPATSGMMTRLVSPSQQGQLQGATTSVKSVAELIGPFLFTMIFAYFIDAGAPLQLPGAPFLLAGALLVVSVVIVAFASPAADSKQAPQAAPES | failed
4 | MGPLLVWHRGDLRLHDHPALLEALARGPVVGLVVLDPNNLKTTPRRRAWFLENVRALREAYRARGGALWVLEGLPWEKVPEAARRLKAKAVYALTSHTPYGRYRDGRVREALPVPLHLLPAPHLLPPDLPRAYRVYTPFSRLYRGAAPPLPPPEALPKGPEEGEIPREDPGLPLPEPGEEAALAGLRAFLEAKLPRYAEERDRLDGEGGSRLSPYFALGVLSPRLAAWEAERRGGEGARKWVAELLWRDFSYHLLYHFPWMAERPLDPRFQAFPWQEDEALFQAWYEGKTGVPLVDAAMRELHATGFLSNRARMNAAQFAVKHLLLPWKRCEEAFRHLLLDGDRAVNLQGWQWAGGLGVDAAPYFRVFNPVLQGERHDPEGRWLKRWAPEYPSYAPKDPVVDLEEARRRYLRLARDLARG | not failed
5 | MEPTDVSTGTGKVLLLDTKRYGYWKVCMTQIIRGQEDGFKITKPKANWTAEEKLQSKFNARAMKAIFNGVDEDEFKLIQGCKSAKQAWDTLQKSHEGTSSVKRTRLDHIATQFEYLKMEPDEKIVKFSSKISALANEAEVMGKTYKDQKLVKKLLRCLPPKFAAHKAVMRVAGNTDKISFVDLVGMLKLEEMKADQDKVKPSKNIAFNADQGSEQFQEIKDGMALLARNFGKALKRVEIDGERSRGRFSRSENDDLRKKKEIQCYECGGFGHIKPECPITKRKEMKCLKCKGVGHTKFECPNKSKLKEKSLISFSDSESDDEGEELLNFVAFMASSDSSKFMSDTDSDCDEELNPKDKYRVLYDSWVQLSKDKLKLVKEKLTLEAKLANVSTEDKQKLSGITVDGNSQDYYQKKLDCLQKECHRERDRTKLLERELNDKYKQIRMLNKGLESLDKILAMGRTDSQQRGLGYQGYTGKIKKEEGRVINFVSGGSTSETVVRQSYIEPKKQVKSHVEIKRESVVRTRMVGVICCDHCGKRFHMREQCYKFKEKVRTLWNLAKCFIEPSRFCTVWIKKKDLYGDMEAERYNHKLERMYEEEEMHYASCCNQVNKEMQDEARKKDDSFGST | failed
6 | MKLNIKDVVLNYNIIGEGEPIIILHGYSVDHTIMFGCMENLFSDESRYKRIYVDLPGMGKSTSSDSIKTSDNMLDIILEFIMKVTKGENFLLVGESYGGYLSRGVVYKIREKVNGLFLICPAIIPDFNKRTVPEHVILAYDEKLMSKLNKEEAEEFSSMSVVQNEKIYLRFKEEVMSGIKLGNQDFLERLQREGYGFSFDVDKLPQKFDKPTLMLLGKQDASVGYKDAWNILDNYPRATFAVLDMAGHNLQIEQEDIFNLLGKEWISRTYREKDY | failed
7 | MGAMHVLTLDLAPVTPKDAPLLHRVFHLSPSYFALIGMELPTLEDVVRDLQTLEVDPRRRAFLLFLGQEPVGYLDAKLGYPEAEDATLSLLLIREDHQGRGLGRQALERFAAGLDGVRRLYAVVYGHNPKAKAFFQAQGFRYVKDGGPTLTWYVRPL | not failed
8 | MQNYGRLFELVPGKLELFKKLQLLTEQFKNYCLLSRNFEAANTVFGQIEEIYSGILKKEPGHILVSAHLLFLYETSADLYTKLGKIEKAEESYLQALDFLSKKQRASPGNTTYVRQQGKVYRMLGRAFYEAGDSGKAAQYAGKALEILRELAGKNPEDLHYQYEISDDFTGLGKLFEDIGDIERAKECHMQEINIYRNIHERDPEDEVSEANIAATLDRIGHLYAGKGETETAKQYYEQGLEAYEKLSESYPEDIDHEVGIANTLGYIGKQYSDPEPETALKYYKKALGILEDVVQTFPDVPVYKEDLIQTLGYLESLASGQKQYENAILYRERITELSRQLASENPENFDYKKELAISFKHMGLLYEKAEKHELAKQQYSKSADVFRQVLQDENEKDLMKGLLALDLQKQATILIHEKNYGLAKEYLALLRDYYEALYEKDPEKPENWKAVCEIRTLCGILHKSMGNYDAAIQIYKSVFSILHKHPVSDPDNPDYQSIIGVLYTQLGIAYHLADEYDKSKEAFEKSIPINTRLLDEETENFLHMGDMAVALAEYSKLLTSMGMKKEAEEYAAKADEIKEKIMKKFRFDEYTVEDGDKKAL | failed
9 | MGNVLFLVSLSLIWVMLLYHMFLMQGGFRHYMTFERNIPKWKENVKDLPKVSVLIPAHNEEVVIRQTLKAMVNLYYPKDRLEIIVVNDNSSDRTGDIVDEFSTQYGFIKMVVTKPPHAGKGKSSALNCGFAESNGDVICVYDADNTPEKMAVYYLVLGLMNDQKAGAVVGKFRVINAAKTLLTKFINIETICFQWMAQGGRWKWFKIATIPGTNFAIRRSIIEQLGGWDDKALAEDTELTIRVYNLGYHIRFFPAAVTWEQEPETWKVWWRQRTRWARGNQYVVLKFLAQFFKLKRKRIIFDLFYFFFTYFLFFFGVIMSNAIFVINLFYNLHLSFGFLSIILWVLAFFLFMTKVMITLSIEKTEMNRQNFFIVFLMYFTYSQAWIVLVIYSLFVEIKHRLFKQHGTKQNDTIKRKAGDFFEIYHHMSGKLLADHGDGTSGCSQRRYSRRLDPGGKQPGTSQAASAHKRSLDFIRGKRQRRADVSNTGGRLLYPSAAYT | failed
10 | MRREALKNAVLKIMTEKMELKNVTHLEETMRLNQDLYIDSVMMLQLIVYIEMDVKLCVPEDEVDPKAFLTVGSLLDFMEELQPLQDVNVNN | failed
11 | PDRAWINRCRTLSEHTDKAVRAQLAAHPKATGLHVAAAVMDALTDGDQLLLGASNPVRDAALVSYPAPKIRVLSNRGVAGIDGTVSAAVGAALAYEEGRTVALLGDLTFLHDASGLLIGSGEPRPRDLTIVVANDDGGGIFELLEQGDPQYAGVFERVFGTPHGMDLAALCAAYRVEHHLVGLGELSTRLSAPEAPGDRGIRVLEVTTERSGLRELHAAVRAQL | failed
12 | MDAEGNLFMSWRDGGTFGIARINEQQNIVTPLIEADAANRILYANGLTVDRATGMLTAAHESVKEVTFTFDPREAWYPRQRNIKYSQSDLNSIVDADRYKNFVTFCPYDGYLYTRYRDGKIAKIDPNTFEGHIIHQGPSGSQYGQAINPAKPWLLYITLHSNAPTAYRQGISVLDLRDPDGTGGFKRLNAPGGSAFRDGPIEDALFNYPKDIKFDNDGNMFVADYGNHCIRMISADNIVTTVAGQPGVAGYKDGGPVESLFKNPWGVAVNEQGDIYIADWGNARIRKLVIELEHHHHHH | failed
13 | MKKLMITQEAGVATVLIKNPPVNILTIDLINELNAFILSLKDDRETKVVVFKSFHEAFFIAHLDLNVINGTSGGQAASIEFNHMIANIKAMKQLSIAVVDGVARGGGNEFVMACDLAYGTENSAFAQPELYINIPTGGQGAVQFARRLGKGKALQALLTGADFTAQQAETLNIITQFVLKAELDVFLAQLLSVIVGWEIRDIVMYKEIIAASIKDEAVGTELELRYFLERAREEKTQTIIAAFLKHGGQTEREAKDMQGIFVDTAAELSK | failed
14 | MTLTIPNAPGSSGYLDMFPERRMSYFGNSYILGLTVTAGIGGLLFGYDTGVISGALLYIKDDFEVVKQSSFLQVYNVSSFTSSKLETIVSMALVGAMIGAAAGGWINDYYGRKKATLFADVVFAAGAIVMAAAPDPYVLISGRLLVGLGVGVASVTAPVYIAEASPSEVRGGLVSTNVLMITGGQFLSYLVNSAFTQVPGTWRWMLGVSGVPAVIQFILMLFMPESPRWLFMKNRKAEAIQVLARTYDISRLEDEIDHLSAAEEEEKQRKRTVGYLDVFRSKELRLAFLAGAGLQAFQQFTGINTVMYYSPTIVQMAGFHSNQLALFLSLIVAAMNAAGTVVGIYFIDHCGRKKLALSSLFGVIISLLILSVSFFKQSETSSDGGLYGWLAVLGLALYIVFFAPGMGPVPWTVNSEIYPQQYRGICGGMSATVNWISNLIVAQTFLTIAEAAGTGMTFLILAGIAVLAVIFVIVFVPETQGLTFSEVEQIWKERAYGNISGWGSSSDSNNMEGLLEQGSQS | not failed
15 | MSLIDLYDLRMPQRTGTYVLHEENLAIIETGPSPSVPHLLAGLKALHIDPADIRYIIVTHIHLDHAGGVGVLLEHCPNATVIVHPKGKRHLADPSRLIAGAKAVYGEQFDALFDPIVPVPEERLLVKEDGETLVLSAERTLTFYDTPGHANHHFSIYDSYSGGVFTGDTIGVFYPQLQEAGLAFCLPSTSPNQFNPEAMKQSAERLEKLNPTRIYFGHFGALDQPEEAFRQLRFWLPKFVAAGKEVIARHPEAPAAEQAKAVTKLLHNDITAFLNECSIPASSPVYKVIELDLQVCAMGIIDYWRKQRLEHHHHHH | failed
16 | GEEDWVLPSEVEVLESIYLDELQVIKGNGRTSPWEIYITLHPATAEDQDSQYVCFTLVLQVPAEYPHEVPQISIRNPRGLSDEQIHTILQVLGHVAKAGLGTAMLYELIEKGKEILTDNNIPHGQCVICLYGFQEKEAFTKTPCYHYFHCHCLARY | failed
17 | MRKLWPLALLLAACGAQDVGAGLDPLRLTATSLPPAYLGEPYSASLAAEGGVRPYSFTLDGKLPEGLSFQGGRLFGVPKEKGSFPLLLTVEDAAKNSRAQRLTLTVSDPPPPRLALVLPPAQVEGPFLLLARVEGREAVGFQMEVRLADLEPDLAGLKALSPAHLLDYDPATRLLRLDMAFAKPVKDREAFRLLLTPQKPLVPRLSPKVVFYDKEGKPLGQPLPRGKPFAELLRLAQAWGREGKALKEDLDGDGKVGEADLRLLAQDYFPKPETPSPEAPGGGEGQASGEEQARLEHHHHHH | failed
